The text below walks through data of patent US20260184782A1 (TWIST BIOSCIENCE, published 2026).

Sequences and labels used below:
T1: recombinant human TIGIT (human, UniProt Q495A1 22-141, limits assumed)
T1 construct: recombinant human TIGIT used in Carterra SPR; also called hTIGIT
T1 sequence (looked up): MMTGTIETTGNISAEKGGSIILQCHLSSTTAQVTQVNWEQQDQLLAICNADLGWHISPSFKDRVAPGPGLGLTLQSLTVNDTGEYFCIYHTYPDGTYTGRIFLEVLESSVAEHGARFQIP

B1: TIGIT-SC65 (Fc fusion)
VHH: EVQLVESGGGLVQPGGSLRLSCAASGFTFGNYDMGWFRQAPGKEREFVAAITGSGRSTYYADSVKGRFTISADNSKNTAYLQMNSLKPEDTAVYYCARGRIAASGTKVYWYFDLWGQGTLVTVSS
notes: VHH-Fc fusion in assay
B2: TIGIT-SC16 (Fc fusion)
VHH: EVQLVESGGGLVQPGGSLRLSCAASGTTFSSAAMGWFRQAPGKEREWVASVLRGGYTWYADSVKGRFTISADNSKNTAYLQMNSLKPEDTAVYYCARDPVELGDYWGQGTLVTVSS
notes: VHH-Fc fusion in assay
B3: TIGIT-SC89 (Fc fusion)
VHH: EVQLVESGGGLVQPGGSLRLSCAASGSMSSINAMGWFRQAPGKEREFVAAINYEGDRTYYADSVKGRFTISADNSKNTAYLQMNSLKPEDTAVYYCARWTRGLVSGTYYYYMDVWGQGTLVTVSS
notes: VHH-Fc fusion in assay
B4: TIGIT-SC90 (Fc fusion)
VHH: EVQLVESGGGLVQPGGSLRLSCAASGDTFSSKAMGWFRQAPGKEREFVAAIRWSVSSTYYADSVKGRFTISADNSKNTAYLQMNSLKPEDTAVYYCARWTRGLVSGTYYYYMDVWGQGTLVTVSS
notes: VHH-Fc fusion in assay
B5: TIGIT-SC87 (Fc fusion)
VHH: EVQLVESGGGLVQPGGSLRLSCAASGSIDTINTMGWFRQAPGKEREFVAAITPSSRTTYYVDSVKGRFTISADNSKNTAYLQMNSLKPEDTAVYYCARWGGVTFGGVYPLEYWGQGTLVTVSS
notes: VHH-Fc fusion in assay
B6: TIGIT-SC79 (Fc fusion)
VHH: EVQLVESGGGLVQPGGSLRLSCAASGSILSINTMGWFRQAPGKEREFVAAITSAGGTTYYADSVKGRFTISADNSKNTAYLQMNSLKPEDTAVYYCARWHYDILTGYYWLDSWGQGTLVTVSS
notes: VHH-Fc fusion in assay
B7: TIGIT-SC99 (Fc fusion)
VHH: EVQLVESGGGLVQPGGSLRLSCAASGSIFSMNTMGWFRQAPGKEREFVGAINWSGGSTIYADSVKGRFTISADNSKNTAYLQMNSLKPEDTAVYYCARWDYDILTNYYWLEYWGQGTLVTVSS
notes: VHH-Fc fusion in assay
B8: TIGIT-SC85 (Fc fusion)
VHH: EVQLVESGGGLVQPGGSLRLSCAASGRTFSPYTMGWFRQAPGKEREWVAGISQSGGSTAYADSVKGRFTISADNSKNTAYLQMNSLKPEDTAVYYCARDLNAMGDAYDIWGQGTLVTVSS
notes: VHH-Fc fusion in assay
B9: TIGIT-SC133 (Fc fusion)
VHH: EVQLVESGGGLVQPGGSLRLSCAASGFTLENNMMGWFRQAPGKEREFVAAISASGTLRAYADSVKGRFTISADNSKNTAYLQMNSLKPEDTAVYYCACGRVSGAFIYFDYWGQGTLVTVSS
notes: VHH-Fc fusion in assay
B10: TIGIT-SC145 (Fc fusion)
VHH: EVQLVESGGGLVQPGGSLRLSCAASGNTFSGGFTLGYYVMGWFRQAPGKEREFVAAISRSGTLKAYADGVKGRFTISADNSKNTAYLQMNSLKPEDTAVYYCARVEAYGDPLGYWGQGTLVTVSS
notes: VHH-Fc fusion in assay
B11: TIGIT-SC144 (Fc fusion)
VHH: EVQLVESGGGLVQPGGSLRLSCAASGFTLENNMMGWFRQAPGKEREFVAAISPSGTLRAYADSVKGRFTISADNSKNTAYLQMNSLKPEDTAVYYCAGIHDSGVPLGNWGQGTLVTVSS
notes: VHH-Fc fusion in assay
B12: TIGIT-SC66 (Fc fusion)
VHH: EVQLVESGGGLVQPGGSLRLSCAASGTTFSSAAMGWFRQAPGKEREWVASVLRGGYTWYADSVKGRFTISADNSKNTAYLQMNSLKPEDTAVYYCVTDPRQWLGHDYWGQGTLVTVSS
notes: VHH-Fc fusion in assay
B13: TIGIT-SC102 (Fc fusion)
VHH: EVQLVESGGGLVQPGGSLRLSCAASGSTFSKHHAMGWFRQAPGKEREFVAAIRWSGGNTYYADSVKGRFTISADNSKNTAYLQMNSLKPEDTAVYYCARWYSSSGDYYYMDVWGQGTLVTVSS
notes: VHH-Fc fusion in assay
B14: TIGIT-SC132 (Fc fusion)
VHH: EVQLVESGGGLVQPGGSLRLSCAASGFTLENNMMGWFRQAPGKEREFVAAISASGTLRAYADSVKGRFTISADNSKNTAYLQMNSLKPEDTAVYYCATWRPNRGRYYDWYFDLWGQGTLVTVSS
notes: VHH-Fc fusion in assay
B15: TIGIT-SC149 (Fc fusion)
VHH: EVQLVESGGGLVQPGGSLRLSCAASGFTLENNMMGWFRQAPGKEREFVAAISRSGTLKAYADSVKGRFTISADNSKNTAYLQMNSLKPEDTAVYYCAKVQGPYCSGGSCYLYTFDLWGQGTLVTVSS
notes: VHH-Fc fusion in assay
B16: TIGIT-SC129 (Fc fusion)
VHH: EVQLVESGGGLVQPGGSLRLSCAASGPTLGSYVMGWFRQAPGKEREFVAAISGSGDDTYYADSVKGRFTISADNSKNTAYLQMNSLKPEDTAVYYCARWREFPGYYFAIDVWGQGTLVTVSS
notes: VHH-Fc fusion in assay
B17: TIGIT-SC130 (Fc fusion)
VHH: EVQLVESGGGLVQPGGSLRLSCAASGPTLGSYVTGWFRQAPGKEREFVAAISGSSDDTYYADSVKGRFTISADNSKNTAYLQMNSLKPEDTAVYYCARWREFPGYYFAIDVWGQGTLVTVSS
notes: VHH-Fc fusion in assay
B18: TIGIT-SC5 (Fc fusion)
VHH: EVQLVESGGGLVQPGGSLRLSCAASGFAFGDSWMGWFRQAPGKEREWVASVLRGGYTWYADSVKGRFTISADNSKNTAYLQMNSLKPEDTAVYYCARESEGWFDPWGQGTLVTVSS
notes: VHH-Fc fusion in assay
B19: TIGIT-SC183 (Fc fusion)
VHH: EVQLVESGGGLVQPGGSLRLSCAASGFAFGDSWMGWFRQAPGKEREWVASVLRGGYTWYADSVKGRFTISADNSKNTAYLQMNSLKPEDTAVYYCAKDRSYSFDYWGQGTLVTVSS
notes: VHH-Fc fusion in assay
B20: TIGIT-SC44 (Fc fusion)
VHH: EVQLVESGGGLVQPGGSLRLSCAASGSIFGLGAMGWFRQAPGKERELVAITWGGSTTLYADSVKGRFTISADNSKNTAYLQMNSLKPEDTAVYYCATDQGQWLFDFWGQGTLVTVSS
notes: VHH-Fc fusion in assay
B21: TIGIT-SC161 (Fc fusion)
VHH: EVQLVESGGGLVQPGGSLRLSCAASGFTFSPSWMGWFRQAPGKEREWVASVLRGGYTWYADSVKGRFTISADNSKNTAYLQMNSLKPEDTAVYYCTTDRAIGVRPLFDHWGQGTLVTVSS
notes: VHH-Fc fusion in assay
B22: TIGIT-SC162 (Fc fusion)
VHH: EVQLVESGGGLVQPGGSLRLSCAASGNTFSGGFMGWFRQAPGKEREWVASVLRGGYTWYADSVKGRFTISADNSKNTAYLQMNSLKPEDTAVYYCTTDRAIGVRPLFDHWGQGTLVTVSS
notes: VHH-Fc fusion in assay
B23: TIGIT-SC72 (Fc fusion)
VHH: EVQLVESGGGLVQPGGSLRLSCAASGGLTFSSYAMGWFRQAPGKEREFVAAISWSGGRTYYADSVKGRFTISADNSKNTAYLQMNSLKPEDTAVYYCARWSAKRHSDTMTYYMDVWGQGTLVTVSS
notes: VHH-Fc fusion in assay
B24: TIGIT-SC128 (Fc fusion)
VHH: EVQLVESGGGLVQPGGSLRLSCAASGFIGNYHAMGWFRQAPGKEREFVARITSGGSTYYADSVKGRFTISADNSKNTAYLQMNSLKPEDTAVYYCGGFGNWGQGTLVTVSS
notes: VHH-Fc fusion in assay
B25: TIGIT-SC131 (Fc fusion)
VHH: EVQLVESGGGLVQPGGSLRLSCAASGDTSEIYDMGWFRQAPGKEREFVAITWNSGRIGSNGFATYADSVKGRFTISADNSKNTAYLQMNSLKPEDTAVYYCARWAVGQAFDLWGQGTLVTVSS
notes: VHH-Fc fusion in assay

The target of the experiment is T1, recombinant human TIGIT. The experiment is described as follows: SPR Carterra, average. As for the experimental part: Binding affinities of VHH-Fc proteins to recombinant human TIGIT were measured by SPR using a Carterra instrument (Table 10A). […] Average values reported from measurements from 1-2 samples.
Consider B1, for which the Kd came out at 44.9 nM, the koff came to 0.0249 s⁻¹ and the kon amounted to 1.09e+06 M⁻¹ s⁻¹.

As to B2, the Kd worked out at 52.6 nM, the koff was determined as 0.00387 s⁻¹ and the kon is 80100 M⁻¹ s⁻¹.

As for B3, the Kd was found to be 30.8 nM, the koff worked out at 0.00294 s⁻¹ and the kon amounted to 106000 M⁻¹ s⁻¹.

B4: the Kd turned out to be 59.5 nM, the koff was 0.00301 s⁻¹ and the kon was 50500 M⁻¹ s⁻¹.

Regarding B5, the Kd worked out at 28.7 nM, the koff stood at 0.00564 s⁻¹ and the kon is 196000 M⁻¹ s⁻¹.

With B6, the Kd worked out at 56 nM, the koff amounted to 0.00445 s⁻¹ and the kon turned out to be 79500 M⁻¹ s⁻¹.

As to B7, the Kd worked out at 52.4 nM, the koff is 0.00428 s⁻¹ and the kon was 81600 M⁻¹ s⁻¹.

As for B8, the Kd was 44.6 nM, the koff was determined as 0.000599 s⁻¹ and the kon is 8760 M⁻¹ s⁻¹.

For the molecule B9, the Kd worked out at 41.9 nM, the koff was 0.00561 s⁻¹ and the kon was determined as 158000 M⁻¹ s⁻¹.

With B10, the Kd came out at 47.9 nM, the koff came out at 0.0108 s⁻¹ and the kon stood at 226000 M⁻¹ s⁻¹.

With B11, the Kd worked out at 41 nM, the dissociation rate constant (koff) worked out at 0.00574 s⁻¹ and the kon worked out at 140000 M⁻¹ s⁻¹.

Take B12: the Kd was 39.1 nM, the koff was 0.00116 s⁻¹ and the kon stood at 29700 M⁻¹ s⁻¹.

Turning to B13, the Kd was determined as 33.5 nM, the koff is 0.00146 s⁻¹ and the kon is 43500 M⁻¹ s⁻¹.

Consider B14, for which the Kd worked out at 45.6 nM, the koff was determined as 0.00347 s⁻¹ and the kon was determined as 197000 M⁻¹ s⁻¹.

For B15, the Kd amounted to 35 nM, the koff was determined as 0.0043 s⁻¹ and the kon is 123000 M⁻¹ s⁻¹.

B16: the Kd was 43.9 nM, the off-rate (koff) turned out to be 0.00191 s⁻¹ and the kon was 43700 M⁻¹ s⁻¹.

B17: the Kd was determined as 73 nM, the koff came out at 0.00526 s⁻¹ and the kon was determined as 72000 M⁻¹ s⁻¹.

As for B18, the Kd worked out at 51.4 nM, the koff turned out to be 0.00216 s⁻¹ and the kon stood at 42000 M⁻¹ s⁻¹.

In the case of B19, the Kd came out at 55.2 nM, the koff worked out at 0.00495 s⁻¹ and the kon amounted to 90400 M⁻¹ s⁻¹.

As for B20, the Kd is 35.1 nM, the koff was 0.0124 s⁻¹ and the kon amounted to 354000 M⁻¹ s⁻¹.

Consider B21, for which the Kd is 33.9 nM, the koff turned out to be 0.00146 s⁻¹ and the kon turned out to be 57100 M⁻¹ s⁻¹.

Regarding B22, the Kd came to 126 nM, the off-rate (koff) amounted to 0.0203 s⁻¹ and the kon was 622000 M⁻¹ s⁻¹.

Consider B23, for which the Kd stood at 48.1 nM, the koff was 0.00168 s⁻¹ and the kon was 34900 M⁻¹ s⁻¹.

As for B24, the Kd worked out at 45.4 nM, the koff is 0.00708 s⁻¹ and the kon was found to be 158000 M⁻¹ s⁻¹.

Regarding B25, the Kd was found to be 41 nM, the koff is 0.0278 s⁻¹ and the kon was 677000 M⁻¹ s⁻¹.

The Kd is the concentration at which binding is half-saturated. What is called koff is the first-order rate constant of dissociation. What is called kon is the second-order rate constant of association.
